Test results published in the Immune Epitope Database (IEDB).

How the values were obtained:
HLA-A*02:11 = assay: IEDB peptide-MHC binding, purified MHC/direct/fluorescence; filed as Kd, often an IC50 or EC50 that approximates it; ≥ and ≤ were set here for values at or beyond the usual limits of such assays
HLA-A*11:01 = assay: as above
HLA-A*02:12 [1] = assay: as above
HLA-A*23:01 = assay: as above
HLA-A*24:03 [2] = assay: as above
HLA-A*02:19 [3] = assay: as above
HLA-A*03:01 = assay: as above
HLA-A*02:16 = assay: as above
HLA-A*02:03 [4] = assay: as above
HLA-A*68:02 [5] = assay: as above
HLA-A*29:02 = assay: as above
HLA-B*51:01 = assay: IEDB peptide-MHC binding, purified MHC/competitive/fluorescence; filed as Kd, often an IC50 or EC50 that approximates it; ≥ and ≤ were set here for values at or beyond the usual limits of such assays
HLA-B*18:01 [6] = assay: as above
HLA-A*26:01 = assay: as above
HLA-B*46:01 [7] = assay: as above
HLA-A*02:01 [8] = assay: as above
HLA-B*15:17 = assay: as above
HLA-A*69:01 [9] = assay: as above
HLA-B*57:01 [10] = assay: as above
HLA-B*39:01 = assay: as above
HLA-B*27:03 = assay: as above
HLA-B*18:01 [11] = assay: IEDB peptide-MHC binding, purified MHC/direct/fluorescence; filed as Kd, often an IC50 or EC50 that approximates it; ≥ and ≤ were set here for values at or beyond the usual limits of such assays; details: source organism: Orthohantavirus andesense
HLA-B*07:02 = assay: as above; details: source organism: Orthohantavirus andesense
HLA-B*46:01 [12] = assay: as above; details: source organism: Orthohantavirus andesense
HLA-A*02:01 [13] = assay: as above; details: source organism: Orthohantavirus andesense
HLA-B*15:01 [14] = assay: as above; details: source organism: Orthohantavirus andesense
HLA-B*44:02 = assay: as above; details: source organism: Orthohantavirus andesense
HLA-B*27:05 = assay: as above; details: source organism: Orthohantavirus andesense
HLA-A*01:01 = assay: as above; details: source organism: Orthohantavirus andesense
HLA-B*40:01 = assay: as above; details: source organism: Orthohantavirus andesense
HLA-B*08:01 = assay: as above; details: source organism: Hantavirus Monongahela-3
HLA-A*69:01 [15] = assay: as above; details: source organism: Orthohantavirus andesense
HLA-A*31:01 = assay: as above; details: source organism: Orthohantavirus andesense
HLA-B*48:01 = assay: as above; details: source organism: Orthohantavirus andesense
HLA-B*58:01 = assay: as above; details: source organism: Orthohantavirus andesense
HLA-B*57:01 [16] = assay: as above; details: source organism: Orthohantavirus andesense
HLA-A*02:12 [17] = assay: IEDB peptide-MHC binding, purified MHC/competitive/fluorescence; filed as Kd, often an IC50 or EC50 that approximates it; ≥ and ≤ were set here for values at or beyond the usual limits of such assays; details: source organism: Vibrio vulnificus YJ016
HLA-B*15:01 [18] = assay: as above; details: source organism: Vibrio vulnificus YJ016
HLA-A*24:03 [19] = assay: as above
HLA-A*02:19 [20] = assay: as above; details: source organism: Vibrio vulnificus YJ016
HLA-A*02:03 [21] = assay: as above; details: source organism: Vibrio vulnificus YJ016
HLA-A*68:02 [22] = assay: as above; details: source organism: Vibrio vulnificus YJ016
[23] = source organism: Rickettsia bellii OSU 85-389
[24] = source organism: Rickettsia bellii RML369-C
[25] = source organism: Giardia lamblia ATCC 50803
[26] = source organism: Orthohantavirus andesense
[27] = source organism: Limestone Canyon virus
[28] = source organism: Four Corners hantavirus
[29] = source organism: Vibrio vulnificus YJ016

AKIALAVYK
Kd (HLA-A*02:11; [23]): ≥ 20 µM
Kd (HLA-A*11:01; [23]): 0.427 µM
Kd (HLA-A*02:12 [1]; [23]): ≥ 20 µM
Kd (HLA-A*23:01; [23]): ≥ 20 µM
Kd (HLA-A*24:03 [2]; [23]): ≥ 20 µM
Kd (HLA-A*02:19 [3]; [23]): ≥ 20 µM
Kd (HLA-A*03:01; [23]): ≥ 20 µM
Kd (HLA-A*02:16; [23]): ≥ 20 µM
Kd (HLA-A*02:03 [4]; [23]): ≥ 20 µM
Kd (HLA-A*68:02 [5]; [23]): ≥ 20 µM
Kd (HLA-A*29:02; [23]): ≥ 20 µM
Kd (HLA-B*51:01; [24]): ≥ 20 µM
Kd (HLA-B*18:01 [6]; [24]): ≥ 20 µM
Kd (HLA-A*26:01; [24]): ≥ 20 µM
Kd (HLA-B*46:01 [7]; [24]): ≥ 20 µM
Kd (HLA-A*02:01 [8]; [24]): ≥ 20 µM
Kd (HLA-B*15:17; [24]): ≥ 20 µM
Kd (HLA-A*69:01 [9]; [24]): ≥ 20 µM
Kd (HLA-B*57:01 [10]; [24]): ≥ 20 µM
Kd (HLA-B*39:01; [24]): ≥ 20 µM

APDGFYPFK
Kd (HLA-A*02:11; [25]): ≥ 20 µM
Kd (HLA-A*11:01; [25]): 0.248 µM
Kd (HLA-A*02:12 [1]; [25]): ≥ 20 µM
Kd (HLA-A*23:01; [25]): ≥ 20 µM
Kd (HLA-A*24:03 [2]; [25]): ≥ 20 µM
Kd (HLA-A*02:19 [3]; [25]): ≥ 20 µM
Kd (HLA-A*03:01; [25]): ≥ 20 µM
Kd (HLA-A*02:16; [25]): ≥ 20 µM
Kd (HLA-A*02:03 [4]; [25]): ≥ 20 µM
Kd (HLA-A*68:02 [5]; [25]): ≥ 20 µM
Kd (HLA-A*29:02; [25]): ≥ 20 µM
Kd (HLA-B*51:01; [25]): ≥ 20 µM
Kd (HLA-B*18:01 [6]; [25]): ≥ 20 µM
Kd (HLA-A*26:01; [25]): ≥ 20 µM
Kd (HLA-B*46:01 [7]; [25]): ≥ 20 µM
Kd (HLA-A*02:01 [8]; [25]): ≥ 20 µM
Kd (HLA-B*27:03; [25]): ≥ 20 µM
Kd (HLA-B*15:17; [25]): ≥ 20 µM
Kd (HLA-A*69:01 [9]; [25]): ≥ 20 µM
Kd (HLA-B*57:01 [10]; [25]): ≥ 20 µM
Kd (HLA-B*39:01; [25]): ≥ 20 µM

EKLKKKSAF
Kd (HLA-B*18:01 [11]): ≥ 20 µM
Kd (HLA-B*07:02): ≥ 20 µM
Kd (HLA-A*11:01; [26]): ≥ 20 µM
Kd (HLA-B*46:01 [12]): ≥ 20 µM
Kd (HLA-A*02:12 [1]; [27]): ≥ 20 µM
Kd (HLA-A*02:01 [13]): ≥ 20 µM
Kd (HLA-A*23:01; [27]): ≥ 20 µM
Kd (HLA-B*15:01 [14]): ≥ 20 µM
Kd (HLA-A*24:03 [2]; [27]): ≥ 20 µM
Kd (HLA-B*44:02): ≥ 20 µM
Kd (HLA-A*02:19 [3]; [27]): ≥ 20 µM
Kd (HLA-B*27:05): ≥ 20 µM
Kd (HLA-A*01:01): ≥ 20 µM
Kd (HLA-B*40:01): ≥ 20 µM
Kd (HLA-B*08:01): ≥ 5 µM
Kd (HLA-A*03:01; [26]): ≥ 20 µM
Kd (HLA-A*69:01 [15]): ≥ 20 µM
Kd (HLA-A*31:01): ≥ 20 µM
Kd (HLA-B*48:01): ≥ 20 µM
Kd (HLA-A*68:02 [5]; [27]): ≥ 20 µM
Kd (HLA-A*29:02; [26]): ≥ 20 µM
Kd (HLA-B*58:01): ≥ 20 µM
Kd (HLA-B*57:01 [16]): ≥ 20 µM
Kd (HLA-A*26:01; [28]): ≥ 20 µM
Kd (HLA-B*27:03; [28]): ≥ 20 µM
Kd (HLA-B*15:17; [28]): ≥ 20 µM
Kd (HLA-B*39:01; [28]): ≥ 20 µM

GMWCVLASR
Kd (HLA-B*51:01; [29]): ≥ 20 µM
Kd (HLA-B*18:01 [6]; [29]): ≥ 20 µM
Kd (HLA-A*26:01; [29]): ≥ 20 µM
Kd (HLA-B*46:01 [7]; [29]): ≥ 20 µM
Kd (HLA-A*02:12 [17]): 0.93 µM
Kd (HLA-A*02:01 [8]; [29]): ≥ 20 µM
Kd (HLA-B*27:03; [29]): ≥ 20 µM
Kd (HLA-B*15:01 [18]): ≥ 20 µM
Kd (HLA-B*15:17; [29]): ≥ 20 µM
Kd (HLA-A*24:03 [19]; [29]): ≥ 20 µM
Kd (HLA-A*02:19 [20]): ≥ 20 µM
Kd (HLA-A*69:01 [9]; [29]): ≥ 20 µM
Kd (HLA-A*02:03 [21]): ≥ 20 µM
Kd (HLA-A*68:02 [22]): ≥ 20 µM
Kd (HLA-B*57:01 [10]; [29]): ≥ 20 µM
Kd (HLA-B*39:01; [29]): ≥ 20 µM

HWMDATFNI
Kd (HLA-A*02:11; source organism: Choclo virus): ≥ 20 µM
Kd (HLA-A*02:12 [1]; source organism: Choclo virus): ≥ 20 µM
Kd (HLA-A*02:19 [3]; source organism: Choclo virus): ≥ 20 µM
Kd (HLA-A*03:01; source organism: Choclo virus): ≥ 20 µM
Kd (HLA-A*02:16; source organism: Choclo virus): ≥ 20 µM
Kd (HLA-A*02:03 [4]; source organism: Choclo virus): ≥ 20 µM
Kd (HLA-B*51:01; source organism: Choclo virus): ≥ 20 µM
Kd (HLA-B*18:01 [6]; source organism: Choclo virus): ≥ 20 µM
Kd (HLA-A*26:01; source organism: Choclo virus): ≥ 20 µM
Kd (HLA-B*46:01 [7]; source organism: Choclo virus): ≥ 20 µM
Kd (HLA-A*02:01 [8]; source organism: Choclo virus): ≥ 20 µM
Kd (HLA-B*27:03; source organism: Choclo virus): ≥ 20 µM
Kd (HLA-B*15:17; source organism: Choclo virus): ≥ 20 µM
Kd (HLA-A*24:03 [19]; source organism: Choclo virus): ≤ 0.0001 µM
Kd (HLA-A*69:01 [9]; source organism: Choclo virus): ≥ 20 µM
Kd (HLA-B*57:01 [10]; source organism: Choclo virus): ≥ 20 µM
Kd (HLA-B*39:01; source organism: Choclo virus): ≥ 20 µM
